{
  "source": "patent US12460006B2",
  "about": "“Antibodies against integrin alpha 11 beta 1” (Momenta Pharmaceuticals, Inc., priority 2019, dated 2025)",
  "molecules": {"B1": {"name": "8-I14: mouse anti-α11β1 mAb; VH SEQ ID NO: 109, VL SEQ ID NO: 110 (antibody, V domains shown)", "VH": "EVQLQQSGPELVKPGASVKKSCKASGYTFTDYYMHWVKQKPGQGLEWIGKIYPGSGNTHYNEKFKGKATLTADKSSSTAYMQLSSLTSEDSAVYFCATNYYGYRAMNYWGQGSSVTVSS", "VL": "DIHLTQSPSSLSASLGERISLTCRASQDIYISLNWFQQKPDGTIKLLIYGTSSLDSGVPKRFSGSRSGSDYSLTISSLESEDFADYYCLQYASSPYTFGGGTKLEIK"}, "B2": {"name": "9-E16: mouse anti-α11β1 mAb; VH SEQ ID NO: 111, VL SEQ ID NO: 112 (antibody, V domains shown)", "VH": "EVQLQQSGPELVKPGASVKISCKASGYTFTDYYMHWVKQKPGQGLEWIGEIYPGSGNPYYNEKFKGKATLTADKSSSSAYMQLSSLTSEDSAVYFCARTSYGRVGTGFAYWGQGTLVTVSA", "VL": "NFVMTQTPLSLPVSLGDQASISCRSSQSLLHSNGNTYLHWYLQKPGQSPKLLIYKVSNRFSGVPDRFSGSGSGTDFTLKINRVETEDLGIYFCSQSSHVPTFGAGTKLELK"}, "B3": {"name": "6C7: rabbit anti-α11β1 mAb; heavy chain SEQ ID NO: 185, light chain SEQ ID NO: 186 (antibody)", "heavy": "METGLRWLLLVAVLKGVQCQQQLEESGGGLVKPGGTLTLTCKASGIDFSSYYYMCWVRQAPGKGLELIVCIYTSSGGTWYASWVNGRLTISRSTSLNTVDLKMTSLTAADTATYFCARGVYSGSSDYPTRLDLWGQGTLVTVSLGQPKAPSVFPLAPCCGDTPSSTVTLGCLVKGYLPEPVTVTWNSGTLTNGVRTFPSVRQSSGLYSLSSVVSVTSSSQPVTCNVAHPATNTKVDKTVAPSTCSKPMCPPPELPGGPSVFIFPPKPKDTLMISRTPEVTCVVVDVSQDDPEVQFTWYINNEQVRTARPPLREQQFNSTIRVVSTLPIAHQDWLRGKEFKCKVHNKALPAPIEKTISKARGQPLEPKVYTMGPPREELSSRSVSLTCMINGFYPSDISVEWEKNGKAEDNYKTTPTVLDSDGSYFLYSKLSVPTSEWQRGDVFTCSVMHEALHNHYTQKSISRSPGK", "light": "MDTSTSTALLGLLLLWLTGARCAIEMTQSPPSLSASVGETVRIRCLASEDIYSGISWYQQKPEKPPTLLISGASNLESGVPPRFSGGGSGTDYTLTIGGVQAEDVATYYCLGGYSFSSTGLTFGAGTKVEIKRDPVAPSVLLFPPSKEELTTGTATIVCVANKYFPDVTVTWEVDGTTQTTGIENSKTPQNSADCTYNLSSTLTLTSTQYNSHKEYTCKVTQGTTSVVQSFNRGDC"}, "B4": {"name": "3B1: rabbit anti-α11β1 mAb; heavy chain SEQ ID NO: 201, light chain SEQ ID NO: 202 (antibody)", "heavy": "METGLRWLLLVAVLKGVQCQEQLEESGGGLVKPEGSLTLTCKASGFDLSSGYDMCWVRQAPGKGLEWIACIYADYSGSTYYASWVNGRFTISSSTSLNTVDLKMTSLTAADTATYFCARGATGNGGYGYYFNLWGPGTLVTVSSGQPKAPSVFPLAPCCGDTPSSTVTLGCLVKGYLPEPVTVTWNSGTLTNGVRTFPSVRQSSGLYSLSSVVSVTSSSQPVTCNVAHPATNTKVDKTVAPSTCSKPMCPPPELPGGPSVFIFPPKPKDTLMISRTPEVTCVVVDVSQDDPEVQFTWYINNEQVRTARPPLREQQFNSTIRVVSTLPIAHQDWLRGKEFKCKVHNKALPAPIEKTISKARGQPLEPKVYTMGPPREELSSRSVSLTCMINGFYPSDISVEWEKNGKAEDNYKTTPTVLDSDGSYFLYSKLSVPTSEWQRGDVFTCSVMHEALHNHYTQKSISRSPGK", "light": "MDTRAPTQLLGLLLLWLPGARCADIVMTQTPASVSEPVGGTVTIKCQASQNINSGLAWYQQKPGQPPKLLIYKASTLASGVSSRFKGSGSGTEFTLTISDLECADAATYYCQTYYYSSSSSDNAFGGGTEVVVKGDPVAPTVLIFPPAADQVATGTVTIVCVANKYFPDVTVTWEVDGTTQTTGIENSKTPQNSADCTYNLSSTLTLTSTQYNSHKEYTCKVTQGTTSVVQSFNRGDC"}, "B5": {"name": "5D7: rabbit anti-α11β1 mAb; heavy chain SEQ ID NO: 191, light chain SEQ ID NO: 192 (antibody)", "heavy": "METGLRWLLLVAVLKGVQCQEQLVESGGGLVQPEGSLTLTCKASGFDFSSNAMCWVRQAPGKGLEWIACIYNGDGSTYYASWVNGRFTISKTSSTTVTLQMTSLTAADTATYFCARGLSNWNRDNLWGPGTLVTVSSGQPKAPSVFPLAPCCGDTPSSTVTLGCLVKGYLPEPVTVTWNSGTLTNGVRTFPSVRQSSGLYSLSSVVSVTSSSQPVTCNVAHPATNTKVDKTVAPSTCSKPMCPPPELPGGPSVFIFPPKPKDTLMISRTPEVTCVVVDVSQDDPEVQFTWYINNEQVRTARPPLREQQFNSTIRVVSTLPIAHQDWLRGKEFKCKVHNKALPAPIEKTISKARGQPLEPKVYTMGPPREELSSRSVSLTCMINGFYPSDISVEWEKNGKAEDNYKTTPTVLDSDGSYFLYSKLSVPTSEWQRGDVFTCSVMHEALHNHYTQKSISRSPGK", "light": "MDTRAPTQLLGLLLLWLPGATFAQVLTQTPSSVSAAVGGTATINCQASQSLYSPKNLAWYQQTPGQPPKLLIYSASKLASGVPSRFKGSGSGTQFTLTISGVQCDDAAIYYCQGEFSCTTAACFAFGGGTEVVVKGDPVAPTVLIFPPAADQVATGTVTIVCVANKYFPDVTVTWEVDGTTQTTGIENSKTPQNSADCTYNLSSTLTLTSTQYNSHKEYTCKVTQGTTSVVQSFNRGDC"}, "B6": {"name": "5A7: rabbit anti-α11β1 mAb; heavy chain SEQ ID NO: 193, light chain SEQ ID NO: 194 (antibody)", "heavy": "METGLRWLLLVAVLKGVQCQSLEESGGGLVQPEGSLTLACTASGFSFSSYYYICWVRQAPGTGLEWIGCINTGSDDTHYASWLKGRFTFSKASSTTLTLQMTSLTAADTATYFCARSSGSSDDAYDLWGPGTLVTVSSGQPKAPSVFPLAPCCGDTPSSTVTLGCLVKGYLPEPVTVTWNSGTLTNGVRTFPSVRQSSGLYSLSSVVSVTSSSQPVTCNVAHPATNTKVDKTVAPSTCSKPMCPPPELPGGPSVFIFPPKPKDTLMISRTPEVTCVVVDVSQDDPEVQFTWYINNEQVRTARPPLREQQFNSTIRVVSTLPIAHQDWLRGKEFKCKVHNKALPAPIEKTISKARGQPLEPKVYTMGPPREELSSRSVSLTCMINGFYPSDISVEWEKNGKAEDNYKTTPTVLDSDGSYFLYSKLSVPTSEWQRGDVFTCSVMHEALHNHYTQKSISRSPGK", "light": "MDTRAPTQLLGLLLLWLPGARCDVVMTQTPASVSEPVGGAVTIKCQASQSIGSNLAWYQHKPGQPPKLLIYFASSLASGVSSRFKGGRSGTQFTLTISDLECADAATYYCHCTYYPLSYVTFGGGTEVVVKGDPVAPTVLIFPPAADQVATGTVTIVCVANKYFPDVTVTWEVDGTTQTTGIENSKTPQNSADCTYNLSSTLTLTSTQYNSHKEYTCKVTQGTTSVVQSFNRGDC"}, "B7": {"name": "10-L15: mouse anti-α11β1 mAb; VH SEQ ID NO: 119, VL SEQ ID NO: 120 (antibody, V domains shown)", "VH": "QVQLQQSGPELVRPGASVKMSCKASGYTFTSYWMHWVKQRPGQGLEWIGMIDPSNSETWLNQKFKDKATLNVDKSSNTAYMQLSSLTSEDSAVYYCARYDGYYDYWGQGTTLTVSS", "VL": "NIVLTQSPASLAVSLGQRATISCRASESVDSYGNSFMHWYQQKPGQPPKLLIYLASNVESGVPARFSGSGSRTDFTLTIDPVEADDAATYYCQQNNEDPWTFGGGTKLEIK"}},
  "data": [
    {"tested_on": "CHO cell lines expressing α11", "test": "Collagen gel contraction assay", "format": "cell-based, human", "details": "Yes/No", "procedure": "(§1) 24-well plates were blocked with 2% BSA in PBS overnight at 37° C. The following day, the plates were washed 3 times with PBS before being used in the assay. Human CHO cell lines expressing α11 were harvested and resuspended at 1.25×10^6 in ExpiCHO Expression Medium (Gibco™ Cat #A2910002). The collagen gel solution was prepared by diluting 3 mg/mL stock collagen type I (Gibco™ Collagen I Rat Protein, Tail Cat #A1048301) to 1 mg/mL in the media containing the CHO cells. Sodium hydroxide was added to the solution to neutralize the pH and 400 μL of the collagen solution was added to each well of the 24-well plates. For the wells where the antibodies were included in the collagen gel solution, CHO cells were prepared at 2.5×10^6 and the antibodies were prepared at 2× final concentration in ExpiCHO media. The cells and antibodies were then combined 1:1 before the addition of the stock collagen type 1. The gels were allowed to polymerize for 60 minutes at 37° C. Antibodies were added to the ExpiCHO media, which was then layered on top of the polymerized gel (400 μL/well). The gels were incubated for 6 days at 37° C. before gel contraction was quantified. Images of each well were analyzed using Image J and gel contraction was determined as a percentage of the initial gel area.\n(§2) Selected exemplary antibodies were tested for the ability to inhibit cell-mediated 3D gel contraction because this ability is directly linked to the functionality of the exemplary antibodies.", "values": [
      {"molecule": "B1", "Inhibition of CHO-K1 gel contraction": "No"}
    ]},
    {"tested_on": "CHO cell lines expressing α11", "test": "Collagen gel contraction assay", "format": "cell-based, human", "details": "vs untreated", "procedure": "as §1, §2", "values": [
      {"molecule": "B2", "inhibition of CHO-hu α11-mediated collagen gel contraction": "inhibited CHO-hu α11-mediated collagen gel contraction"},
      {"molecule": "B1", "inhibition of CHO-hu α11-mediated collagen gel contraction": "inhibited CHO-hu α11-mediated collagen gel contraction"}
    ]},
    {"tested_on": "Human Pulmonary Fibroblasts", "test": "Fibroblast-to-Myofibroblasts Transition (FMT), αSMA expression", "format": "cell-based", "details": "TGFβ-induced FMT", "procedure": "(§3) Human Pulmonary Fibroblasts (ScienCell) were cultured in complete Fibroblast Growth Medium (ScienCell) until 80% confluent. Cells were washed and harvested using Accutase. Cells were seeded onto tissue culture-treated 96 well plates at 20,000 cells/well in complete Fibroblast Growth Medium. After 24 hours, cells were washed and starved in serum reduced medium for an additional 24 hours. After starvation, cells were treated with TGFβ-1 (R&D Systems) with or without anti-α11 antibodies. A polyclonal rabbit anti-human α11 antibody was used as a positive control. Appropriate IgG isotype controls were also included. After 48 hours, cells were harvested, fixed, permeabilized and stained with AlexaFluor488 Labeled Anti-αSMA (α-smooth muscle actin) (Invitrogen). Cells were acquired on a FACS Verse (Benton Dickson) to determine expression levels of αSMA. Data were analyzed by gating on single cells and determining the geometric Mean Fluorescence Intensity (gMFI) in the FITC channel for each sample. gMFI for each sample was normalized to the untreated control and presented as % inhibition.\n(§4) In addition to the binding abilities described above, it is important for an anti-α11β1 antibody to inhibit the fibroblast-to-myofibroblast transition (FMT). It is now appreciated that myofibroblasts are a heterogeneous cell population, existing in different activation states, with the main function of producing and contracting collagen extracellular matrix (ECM). FMT is a multi-step event that is controlled by a changing mechanical environment in tissues undergoing repair. TGFβ is one of the potent factors that potentiates this process and alpha smooth muscle actin (αSMA) is one of the main markers that becomes overexpressed when fibroblasts are undergoing the transition to becoming myofibroblasts. The presence of αSMA enhances fibroblast contraction and guides myofibroblast activation through an intracellular feedback loop. Because αSMA is the main molecular marker of myofibroblasts, the ability of the novel anti-α11β1 mAbs to inhibit αSMA expression in TGFβ-induced FMT was tested.", "values": [
      {"molecule": "B2", "inhibition of αSMA expression / FMT": "FMT inhibitors"},
      {"molecule": "B1", "inhibition of αSMA expression / FMT": "only inhibited FMT"}
    ]},
    {"tested_on": "Human Pulmonary Fibroblasts", "test": "Fibroblast-to-Myofibroblasts Transition (FMT), αSMA expression", "format": "cell-based", "details": "Yes/No", "procedure": "as §3, §4", "values": [
      {"molecule": "B3", "Inhibition of FMT": "No"},
      {"molecule": "B4", "Inhibition of FMT": "No"},
      {"molecule": "B5", "Inhibition of FMT": "No"},
      {"molecule": "B2", "Inhibition of FMT": "Yes"},
      {"molecule": "B6", "Inhibition of FMT": "No"},
      {"molecule": "B7", "Inhibition of FMT": "No"},
      {"molecule": "B1", "Inhibition of FMT": "Yes"}
    ]}
  ]
}
